Measurements from the supplement of paper PMC9732359.
± gives the uncertainty stated by the source.

Experiment: protein stability index of a GFP-peptide fusion (yeast GPS) (PSI 1-4); higher = more stable; sorted into four equal gates, so the index is relative within each strain
Outline: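 Yeast carrying a pooled library were grown to mid-log phase in leucine-free medium. Each library plasmid expresses Cherry and has a tiled 17-residue yeast protein peptide fused downstream of GFP. Cells were sorted into four equal gates by GFP/Cherry ratio, and plasmids from each gate were PCR-amplified, Illumina-sequenced and assigned to strains by barcode. Summing, across gates, the read frequency times the gate number gave each peptide's protein stability index.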

Sequence | protein stability index (doa10∆) | protein stability index (pdr5∆) | protein stability index (san1∆) | protein stability index (ubr1∆)
AIHIFESYYNWKYNNFL [YML103C/NUP188] | 2.04 ± 0.13 | 1.6 ± 0.1 | 1.94 ± 0.24 | 2.62 ± 0.17
DAKKARFWSFMKTQRFV [SIR4] | 2.6 ± 0.096 | 2.88 ± 0.069 | 2.67 ± 0.069 | 2.75 ± 0.066
FTTLLESKQDGLSILFL [YML103C/NUP188] | 2.53 ± 0.097 | 2.68 ± 0.12 | 2.56 ± 0.096 | 3 ± 0.14
KIMVAEWYLSHLCSGIL [SRB8] | 1.35 ± 0.056 | 1.39 ± 0.057 | 1.24 ± 0.077 | 1.47 ± 0.049
NIKFLSKLEGTINKAVQ [ESC2] | 2.86 ± 0.11 | 3.35 ± 0.14 | 2.72 ± 0.1 | 2.91 ± 0.1
PKFAIQDNHHITKVTEN [YMR129W/POM152] | 2.83 ± 0.052 | 2.88 ± 0.058 | 2.75 ± 0.04 | 3.09 ± 0.041
KSLPLLITVMEKSPDPT [YCS4] | 1.91 ± 0.045 | 1.87 ± 0.043 | 1.92 ± 0.062 | 1.97 ± 0.034
LSTGRKFERARGRRRSK [RPL18A] | – | – | – | 3.05 ± 0.1
VYNNSKDEYLAQLDGRI [NSL1] | 3.33 ± 0.073 | 3.26 ± 0.049 | 3.17 ± 0.049 | 3.36 ± 0.045
LADKLENYEGKQDKTLQ [YIL149C/MLP2] | 3.15 ± 0.18 | 3.22 ± 0.22 | 2.92 ± 0.15 | 3.17 ± 0.22
LQKRVIEHNLRVISEYY [RPN5] | 2.02 ± 0.12 | 2.27 ± 0.11 | 2.77 ± 0.069 | 1.37 ± 0.095
VSEGTRAVTKYSSSTQA [HTB1] | 2.99 ± 0.066 | 3.15 ± 0.1 | 3.16 ± 0.054 | 3.02 ± 0.071
LDDNSTSLEKQINSIKK [YJL041W/NSP1] | 2.74 ± 0.078 | 3.01 ± 0.058 | 2.98 ± 0.038 | 2.95 ± 0.045
YTKPYPNFEASFVHGVV [SMC2] | 2.53 ± 0.15 | 2.32 ± 0.13 | 2.47 ± 0.26 | 2.33 ± 0.14
ETENSESIASSNTYKEE [MCD1] | – | 2.55 ± 0.29 | – | 2.89 ± 0.074
NNQQRLLLKKLDNFQKS [SMC3] | 2.55 ± 0.06 | 2.64 ± 0.068 | 2.41 ± 0.054 | 2.45 ± 0.043
LVSEARTLWPEFIPPDP [SSN8] | 2.61 ± 0.041 | 2.8 ± 0.043 | 2.73 ± 0.038 | 3.03 ± 0.033
TPVQPDLSVTPQKSSSK [YAR002W/NUP60] | 3.15 ± 0.04 | 3.15 ± 0.04 | 3.057 ± 0.026 | 3.093 ± 0.027
SFLKEGDLLNAEVQSLF [RRP4] | 2.57 ± 0.058 | 3.03 ± 0.091 | 3.04 ± 0.059 | 2.8 ± 0.067
DILSKLYLLLARVFEIW [SNF11] | 2.15 ± 0.044 | 2.36 ± 0.053 | 2.19 ± 0.07 | 2.39 ± 0.041
SFALPFEEDEKNSDVWF [RPN8] | 3.28 ± 0.08 | 3.23 ± 0.072 | 3.14 ± 0.051 | 3.26 ± 0.06
KTFSRLDALTRHIKSKH [RPN4] | 1.11 ± 0.12 | 1.25 ± 0.087 | 1.06 ± 0.12 | 1.5 ± 0.1
SGNDSMAGKVLILTSHN [BRR2] | 2.13 ± 0.058 | 2.28 ± 0.072 | 1.63 ± 0.091 | 2.36 ± 0.089

Sequence | protein stability index (doa10∆) | protein stability index (pdr5∆) | protein stability index (san1∆) | protein stability index (ubr1∆)
NNLEPRQTTSNTGLLNK [RPN11] | 3.2 ± 0.062 | 3.24 ± 0.061 | 3.14 ± 0.044 | 3.32 ± 0.046
FLGALKYLPHAILKLLE [PRP8] | 2.12 ± 0.09 | 1.82 ± 0.061 | 2.55 ± 0.085 | 2.16 ± 0.039
KMVAKGLNDLVEQYKFR [BRR2] | 3.35 ± 0.12 | 3.17 ± 0.12 | 3.03 ± 0.11 | 3.14 ± 0.096
TVMYQRRSKMNPLWNAI [PRE4] | 2.83 ± 0.084 | 3.18 ± 0.11 | 2.66 ± 0.089 | 3.09 ± 0.072
DEVTIRRTVGLKKDDYQ [SMC3] | 2.66 ± 0.12 | 2.53 ± 0.099 | 2.32 ± 0.13 | 2.35 ± 0.071
QEQGSFQHILRLLNTNV [RPS18A] | 2.97 ± 0.045 | 3.06 ± 0.045 | 2.91 ± 0.037 | 3.03 ± 0.035
QINIMPSLKAHFTEIKL [SIR3] | 2.18 ± 0.056 | 2.1 ± 0.054 | 2.29 ± 0.057 | 2.4 ± 0.045
FQFKLLQSNSKLASTLE [SMC4] | 2.29 ± 0.056 | 2.37 ± 0.042 | 2.42 ± 0.055 | 2.58 ± 0.038
EVDEKPTETYSDVGGLD [RPT5] | 3.35 ± 0.082 | 3.3 ± 0.07 | 3.16 ± 0.058 | 3.23 ± 0.059
QPIEKNGDKMPLKFKLG [YJR042W/NUP85] | 2.74 ± 0.064 | 2.98 ± 0.069 | 2.52 ± 0.086 | 3.08 ± 0.042
PQLSKAGKFPTPVSHND [RPL1A] | 2.31 ± 0.04 | 2.87 ± 0.048 | 2.36 ± 0.048 | 2.62 ± 0.031
GTISIQLKNGLLEKYNT [MTR3] | 2.28 ± 0.059 | 2.5 ± 0.073 | 2.42 ± 0.082 | 2.43 ± 0.037
NAVLGLGDMAVCFNNLV [YCS4] | 2.71 ± 0.097 | 3.32 ± 0.11 | 2.61 ± 0.098 | 2.68 ± 0.093
CDYYNTFLLNNKNIDIG [RPN2] | 3.14 ± 0.087 | 3.04 ± 0.076 | 2.85 ± 0.069 | 2.79 ± 0.086
SSTDEESWFKALAGSEI [FAS1] | 3.32 ± 0.12 | 3.34 ± 0.14 | 3.11 ± 0.11 | 3.3 ± 0.081
FVIPALPAAVSKSLQES [RPC82] | 1.8 ± 0.1 | 1.69 ± 0.14 | 2.58 ± 0.085 | 2.04 ± 0.12
SNEAAKPSFSFPGKPVD [YOR098C/NUP1] | 2.84 ± 0.048 | 2.96 ± 0.048 | 3.01 ± 0.038 | 2.95 ± 0.047
LLEKYNTNELKEVSSFL [MTR3] | 3.05 ± 0.054 | 2.76 ± 0.054 | 3.23 ± 0.046 | 3.1 ± 0.053
LIENKIQNKKIQEQRVK [RPN8] | 2.61 ± 0.075 | 2.7 ± 0.073 | 2.74 ± 0.068 | 2.83 ± 0.049
MITKRILEVGALASIQT [RPN12] | 1.63 ± 0.083 | – | 2.14 ± 0.22 | –
TILYLNVFHGLCAGANN [IRR1] | 1.3 ± 0.071 | 1.64 ± 0.083 | 1.39 ± 0.087 | 1.34 ± 0.076
GVPDDKWEQTYKKPTGG [FAS1] | 3.38 ± 0.07 | 3.29 ± 0.1 | 3.2 ± 0.093 | 3.09 ± 0.069
